Results taken from the supplement of paper PMC7125110.
± gives the standard error. Variants at the floor of the assay were thinned out.

B1: glmS ribozyme (parent)
chain: AUAAAAGCGCCAGAACUACAGAAAUGUAGUUGACGAGGAGGAGGUUUAUCGAAUUUUCGGCGGAUGCCUCCAAA

How the values were obtained:
Settings in all cases: with glucosamine-6-phosphate
glucosamine-6-phosphate [1] = variants of: B1; assay: self-cleavage kobs at 640 uM GlcN6P; higher = faster cleavage; RNA array
Procedure, shortened: (§1)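 kobs was derived by fitting per-tile medians to one- or two-exponential decays after normalising signals to baseline and to non-cleaving reference variants. Those signals came from barcoded ribozyme variants transcribed in situ by E. coli RNA polymerase on sequenced MiSeq chips, followed through a hybridised Cy3 probe at 37 °C and imaged over ~14 h. Glucosamine-6-phosphate (40 μM to 10 mM) in HEPES/KCl/Mg(OAc)2 buffer was flowed in. Weighted Michaelis–Menten fits across concentrations then gave kcat and KM.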

glucosamine-6-phosphate [2] = variants of: B1; assay: self-cleavage kobs at 2500 uM GlcN6P; higher = faster cleavage; RNA array
Procedure, shortened: as §1

glucosamine-6-phosphate [3] = variants of: B1; assay: self-cleavage kobs at 10000 uM GlcN6P; higher = faster cleavage; RNA array
Procedure, shortened: as §1

| Variant | self-cleavage kobs at 640 uM GlcN6P (glucosamine-6-phosphate [1]) | self-cleavage kobs at 2500 uM GlcN6P (glucosamine-6-phosphate [2]) | self-cleavage kobs at 10000 uM GlcN6P (glucosamine-6-phosphate [3]) |
| --- | --- | --- | --- |
| G29U U55G G59U C70G | 0.00019 ± 4.5e-05 s⁻¹ | – | – |
| A33C G38A U47G | < 1e-05 s⁻¹ | < 1e-05 s⁻¹ | – |
| U31G G35C C68G | < 1e-05 s⁻¹ | < 1e-05 s⁻¹ | – |
| C16U G29U U31A | 0.00108 ± 0.00033 s⁻¹ | 0.0037 ± 0.00095 s⁻¹ | – |
| C16U G37A U54C | 0.000373 ± 8.1e-05 s⁻¹ | 0.000599 ± 0.00013 s⁻¹ | 0.00176 ± 0.00031 s⁻¹ |
| G32U G62A C67A | < 1e-05 s⁻¹ | – | – |
| C16A G62U C71G | < 1e-05 s⁻¹ | < 1e-05 s⁻¹ | – |
| G29A U69A | 7.98e-05 ± 2.2e-05 s⁻¹ | 3.9e-05 ± 9.8e-06 s⁻¹ | – |
| C16U G38C | < 1e-05 s⁻¹ | – | – |
| C19A A33U C50G U56C C58U G63U C68G | 0.000599 ± 0.00016 s⁻¹ | – | – |
| C16U U46C U55A C70U | 0.00101 ± 0.00034 s⁻¹ | 0.00219 ± 0.0006 s⁻¹ | 0.00226 ± 0.00047 s⁻¹ |
| A33U A48C G63A | < 1e-05 s⁻¹ | < 1e-05 s⁻¹ | – |
| C34U G51C U54A | < 1e-05 s⁻¹ | < 1e-05 s⁻¹ | – |
| G29U C34U G40U A42C U55A G66U | < 1e-05 s⁻¹ | < 1e-05 s⁻¹ | – |
| C16G A33U G38A G43U C67U | < 1e-05 s⁻¹ | < 1e-05 s⁻¹ | – |
| A33U A42U G44C | < 1e-05 s⁻¹ | – | – |
| G32A G44U C67G | 0.000431 ± 0.0001 s⁻¹ | 0.00127 ± 0.00059 s⁻¹ | – |
| A33C A48C C71A | < 1e-05 s⁻¹ | < 1e-05 s⁻¹ | – |
| C34G U54A A64G | < 1e-05 s⁻¹ | < 1e-05 s⁻¹ | – |
| G32C A33G U47A U54C A64C C71U | < 1e-05 s⁻¹ | < 1e-05 s⁻¹ | – |
| U30G G35A A39U U55C | < 1e-05 s⁻¹ | < 1e-05 s⁻¹ | – |
| C16U G43C C71A | < 1e-05 s⁻¹ | < 1e-05 s⁻¹ | – |
| U31C G32A U55A | 0.000149 ± 2.6e-05 s⁻¹ | 0.000644 ± 0.00017 s⁻¹ | – |
| G32A G66U C68G | 0.000111 ± 3.9e-05 s⁻¹ | – | – |
| G29U G32U G38A C61A C67U | 0.000133 ± 3.8e-05 s⁻¹ | 0.00034 ± 9.8e-05 s⁻¹ | – |
| C34U A39C C50G | < 1e-05 s⁻¹ | – | – |
| G29A U56A A64G | 0.000408 ± 0.00012 s⁻¹ | 0.00201 ± 0.00043 s⁻¹ | 0.00195 ± 0.00041 s⁻¹ |
| C34A G40C C61U | < 1e-05 s⁻¹ | – | – |
| U30G C50U A64G G66U | < 1e-05 s⁻¹ | < 1e-05 s⁻¹ | – |
